The values that follow come from patent publication US10053716B2, “4-amino cinnamic acid production method using enzyme” (JAPAN SCIENCE AND TECHNOLOGY AGENCY, priority 2014, dated 2018).

Assay type in all cases: biochemical
Data set [1] is described as follows: PAL activity of Escherichia coli recombinant enzyme crude extract. Particulars: crude extract, NST37(DE) host, 20 mM phenylalanine. Here is the method:
(§1) [Measurement of Enzyme Activity of Escherichia coli Recombinant Enzyme Crude Extract]
(§2) Escherichia coli was inoculated into 5 ml of LB medium containing 100 mg/L ampicillin sodium or 100 mg/L kanamycin sulfate, and cultured overnight at 37° C. It was then inoculated into 200 ml of the same culture medium and cultured to an O.D. of 0.6, isopropyl-β-thiogalactopyranoside (IPTG) was added to a final concentration of 0.5 mM, and culturing was conducted for 12 hours at 28° C.
(§3) The cultured cells were collected and suspended in 20 mM potassium phosphate buffer (pH 7.5) and subjected to ultrasonic disruption and the supernatant was used as a crude extract for activity measurement. The enzyme activity was measured and quantified by measuring the absorbance at the absorption wavelength of the reaction product using a spectrophotometer, for a period of 5 minutes. For PAL activity, the crude extract was added to 100 mM Tris Buffer (pH 8.0) and 20 mM phenylalanine, reaction was conducted, and production of cinnamic acid was measured by the change in absorbance at a wavelength of 290 nm, while for 4APAL activity, 20 mM 4-aminophenylalanine was used as substrate and the absorbance at a wavelength of 315 nm due to 4-aminocinnamic acid was measured and quantified.

The nature of data set [2]: 4APAL activity of Escherichia coli recombinant enzyme crude extract. To be noted: crude extract, NST37(DE) host, 20 mM 4-aminophenylalanine. On the procedure: as §1, §2, §3
Data set [3] in a line: Km and kcat of recombinant purified enzyme for phenylalanine. To be noted: purified His-tag enzyme. Here is the method:
(§4) [Measurement of Enzyme Activity of Escherichia coli Recombinant Purified Enzyme]
(§5) Escherichia coli was inoculated into 5 ml of LB medium containing 100 mg/L ampicillin sodium or 100 mg/L kanamycin sulfate, and cultured overnight at 37° C. It was then used to inoculate 200 ml of the same culture medium and cultured to an O.D of 0.6, IPTG was added to a final concentration of 0.5 mM, and the incubation was continued for 12 hours at 28° C. The rotational speed during cultures was 120 rpm. The cultured cells were collected and suspended in 20 mM potassium phosphate buffer (pH 7.5) and subjected to ultrasonic disruption, and after centrifugal separation, the supernatant was purified using a His-Trap column and the enzyme activity was measured. The method of measuring the enzyme activity was according to the method for the crude extract described above.
(§6) Since pET28AtPAL4 and its mutants and RgPAL were produced as fusion proteins with His-tag in the Escherichia coli of Example 3, these enzymes could be easily purified using an affinity column. After culturing the producing cells, the cells were collected, disrupted and purified. The purified enzymes were used to calculate the Km values and kcat values.

Data set [4] in a line: Km and kcat of recombinant purified enzyme for 4-aminophenylalanine. To be noted: purified His-tag enzyme. Here is the method: as §4, §5, §6

Turning to “AtPAL4: PAL derived from the plant Arabidopsis thaliana, amino acid sequence SEQ ID NO: 4”, the PAL activity in data set [1] came out at 0.18 µmol/min/mg. In addition, the 4APAL activity in data set [2] came out at 0.012 µmol/min/mg. The “Kcat value, Phenylalanine” value in data set [3] was 5.1 s⁻¹. Further, in data set [4], the “Kcat value, 4-Aminophenylalanine” value is above 0.40 s⁻¹ and the Km is above 40 mM.

The term Km denotes the substrate concentration at which the rate is half of its maximum.
